Experiments:
Suc-AAPF-pNA = molecular target: T1, Suc-AAPF-pNA (Bos taurus, UniProt P00766); assay: Enzyme kinetic assay: hydrolysis of Suc-AAPF-pNA at pH 5-10 (native CT, CT-PDMAEMA conjugates); format: biochemical
T1 construct: purchased Sigma Aldrich; host or cells: bovine pancreas
Description: N-Succinyl-Ala-Ala-Pro-Phe p-nitroanilide (0 to 50 μL of 9.60 mM in DMSO) was added to sodium phosphate buffer (990 to 940 μL of 100 mM, pH 5-10). Native CT or conjugates solution (10 μL of 4.0 μM) was added to the substrate solution. The initial rate of hydrolysis of the peptide substrate was monitored by recording the increase in absorption at 412 nm using a UV-VIS spectrometer. The Michaelis-Menten parameters (kcat, Km and kcat/Km) were determined by non-linear curve fitting (equation for Michaelis-Menten parameters) of plots of initial rate versus substrate concentration using the Enzfitter software.

[1] = Size measurements during 167 mM HCl (pH 1) incubation; format: physicochemical
Description: CT conjugates (4 μM) and native CT (29 μM) passed through a […] cellulose filter were incubated in 167 mM HCl at 37° C. in 1 mL aliquots. Aliquots were removed from incubation at each specified time point. Hydrodynamic diameter was then determined using a Malvern zetasizer nano-ZS at 25° C. Intensity PSD measurements, averaged over five sample runs at each time point, were used to calculate hydrodynamic diameter (Dh).

[2] = pH 5.0, 100 mM sodium phosphate
[3] = pH 6.0, 100 mM sodium phosphate
[4] = pH 7.0, 100 mM sodium phosphate
[5] = pH 8.0, 100 mM sodium phosphate
[6] = pH 9.0, 100 mM sodium phosphate
[7] = pH 10.0, 100 mM sodium phosphate

## α-Chymotrypsin (CT) from bovine pancreas (type II) [Native CT]
Suc-AAPF-pNA; [2]
  Km: 212 µM
  kcat: 2.28 ± 0.36 s⁻¹
Suc-AAPF-pNA; [3]
  Km: 189 µM
  kcat: 12.13 s⁻¹
Suc-AAPF-pNA; [4]
  Km: 84.1 µM
  kcat: 21.54 s⁻¹
Suc-AAPF-pNA; [5]
  Km: 55.2 µM
  kcat: 26.67 s⁻¹
Suc-AAPF-pNA; [6]
  Km: 104 µM
  kcat: 29.49 s⁻¹
Suc-AAPF-pNA; [7]
  Km: 258 µM
  kcat: 27.69 s⁻¹
[1]; 37° C., after 2 hours
  increase of hydrodynamic diameter (Dh): 9 fold
[1]; time zero
  hydrodynamic diameter Dh at time zero: 6.3±0.5 nm
